Literature values, collected in publication PMC10299133.

Biological target: MET (Homo sapiens) (UniProt P08581)
Sequence (P08581 25-932): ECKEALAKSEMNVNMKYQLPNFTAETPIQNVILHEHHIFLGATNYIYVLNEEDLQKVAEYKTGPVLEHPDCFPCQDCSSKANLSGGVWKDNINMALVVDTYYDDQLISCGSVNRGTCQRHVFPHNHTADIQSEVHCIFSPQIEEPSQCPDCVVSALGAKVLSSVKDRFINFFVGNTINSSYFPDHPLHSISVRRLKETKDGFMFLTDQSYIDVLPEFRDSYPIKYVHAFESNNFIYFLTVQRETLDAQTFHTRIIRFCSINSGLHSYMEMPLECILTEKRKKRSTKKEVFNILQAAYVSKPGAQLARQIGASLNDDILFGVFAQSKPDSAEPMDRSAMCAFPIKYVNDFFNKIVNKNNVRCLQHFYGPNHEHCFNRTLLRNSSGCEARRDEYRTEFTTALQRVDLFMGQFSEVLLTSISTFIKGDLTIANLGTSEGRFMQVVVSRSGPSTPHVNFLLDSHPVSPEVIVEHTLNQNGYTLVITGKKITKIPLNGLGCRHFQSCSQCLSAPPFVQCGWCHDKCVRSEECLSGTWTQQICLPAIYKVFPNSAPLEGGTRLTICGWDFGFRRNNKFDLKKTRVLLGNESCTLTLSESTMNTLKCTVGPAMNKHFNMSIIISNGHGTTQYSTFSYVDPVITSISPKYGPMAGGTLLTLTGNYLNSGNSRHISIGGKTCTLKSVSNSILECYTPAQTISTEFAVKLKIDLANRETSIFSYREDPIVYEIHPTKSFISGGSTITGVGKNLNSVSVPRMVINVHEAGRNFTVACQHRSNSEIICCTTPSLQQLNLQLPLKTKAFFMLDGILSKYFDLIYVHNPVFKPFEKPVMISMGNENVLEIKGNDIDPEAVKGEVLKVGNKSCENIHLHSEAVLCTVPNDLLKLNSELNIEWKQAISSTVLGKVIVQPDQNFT

Kd: 40 pM
Substance: amivantamab
